Reference: IntAct's records for PubMed 22863753

B1: NLR family CARD domain-containing protein 3 (Homo sapiens), Q7RTR2 (parent)
chain: MRKQEVRTGREAGQGHGTGSPAEQVKALMDLLAGKGSQGSQAPQALDRTPDAPLGPCSNDSRIQRHRKALLSKVGGGPELGGPWHRLASLLLVEGLTDLQLREHDFTQVEATRGGGHPARTVALDRLFLPLSRVSVPPRVSITIGVAGMGKTTLVRHFVRLWAHGQVGKDFSLVLPLTFRDLNTHEKLCADRLICSVFPHVGEPSLAVAVPARALLILDGLDECRTPLDFSNTVACTDPKKEIPVDHLITNIIRGNLFPEVSIWITSRPSASGQIPGGLVDRMTEIRGFNEEEIKVCLEQMFPEDQALLGWMLSQVQADRALYLMCTVPAFCRLTGMALGHLWRSRTGPQDAELWPPRTLCELYSWYFRMALSGEGQEKGKASPRIEQVAHGGRKMVGTLGRLAFHGLLKKKYVFYEQDMKAFGVDLALLQGAPCSCFLQREETLASSVAYCFTHLSLQEFVAAAYYYGASRRAIFDLFTESGVSWPRLGFLTHFRSAAQRAMQAEDGRLDVFLRFLSGLLSPRVNALLAGSLLAQGEHQAYRTQVAELLQGCLRPDAAVCARAINVLHCLHELQHTELARSVEEAMESGALARLTGPAHRAALAYLLQVSDACAQEANLSLSLSQGVLQSLLPQLLYCRKLRLDTNQFQDPVMELLGSVLSGKDCRIQKISLAENQISNKGAKALARSLLVNRSLTSLDLRGNSIGPQGAKALADALKINRTLTSLSLQGNTVRDDGARSMAEALASNRTLSMLHLQKNSIGPMGAQRMADALKQNRSLKELMFSSNSIGDGGAKALAEALKVNQGLESLDLQSNSISDAGVAALMGALCTNQTLLSLSLRENSISPEGAQAIAHALCANSTLKNLDLTANLLHDQGARAIAVAVRENRTLTSLHLQWNFIQAGAAQALGQALQLNRSLTSLDLQENAIGDDGACAVARALKVNTALTALYLQVASIGASGAQVLGEALAVNRTLEILDLRGNAIGVAGAKALANALKVNSSLRRLNLQENSLGMDGAICIATALSGNHRLQHINLQGNHIGDSGARMISEAIKTNAPTCTVEM
partner: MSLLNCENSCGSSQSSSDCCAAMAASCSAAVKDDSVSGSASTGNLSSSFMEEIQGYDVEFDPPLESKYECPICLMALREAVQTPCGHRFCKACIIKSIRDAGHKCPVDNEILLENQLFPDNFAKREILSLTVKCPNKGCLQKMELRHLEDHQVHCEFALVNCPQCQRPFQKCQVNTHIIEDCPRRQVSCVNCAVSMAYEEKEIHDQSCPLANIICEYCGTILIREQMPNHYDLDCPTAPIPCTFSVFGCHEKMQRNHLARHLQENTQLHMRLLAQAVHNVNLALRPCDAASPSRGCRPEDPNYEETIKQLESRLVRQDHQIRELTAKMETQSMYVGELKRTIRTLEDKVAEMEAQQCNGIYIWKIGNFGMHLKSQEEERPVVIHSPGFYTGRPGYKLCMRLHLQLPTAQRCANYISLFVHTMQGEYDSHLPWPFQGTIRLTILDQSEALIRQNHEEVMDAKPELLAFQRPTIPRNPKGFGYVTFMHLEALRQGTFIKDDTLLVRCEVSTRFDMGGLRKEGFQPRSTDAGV

Variants of: B1
Settings: with traf6_mouse Traf6, P70196

Variant	effect of a mutation on the interaction
S457A;L458A;Q459A;E460A	decreasing interaction
